In patent US9623039B2, “Treatment and prevention of pathological conditions using iduna related techniques and compositions” (VALTED, LLC, priority 2010, dated 2017):

Experiments:
[1] = tested on: PARsylated PARP1; experiment: PARG activity on PARsylated PARP1; type: biochemical
Experimental: FIG. 85—PARG activity was measured by incubation with PARsylated PARP1 as indicated. The level of PARsylated PARP1 (Rb-PARP1) was monitored by immunoblot with anti-PAR antibody. There is a slight difference in the sensitivity of assays used to detect PAR, which accounts for the ability of 1 unit of PARG to eliminate PAR in B, but 1.2 units of PARG is required in A.
As disclosed herein, Iduna contains a consensus PBM is its WWE domain and that mutating the hydrophobic amino acids 155Y and 156R to alanine to create an Iduna YRAA mutant disrupts PAR binding to Iduna. MCF7 cells were transfected with GFP-Iduna, GFP-Iduna C60A and GFP-Iduna YRAA. 48 hours later Iduna was immunoprecipitated with antibodies to GFP followed by immunoblot analysis with antibodies to PAR. Iduna and Iduna C60A bind PAR whereas Iduna YRAA is incapable of binding PAR (FIG. 83). To confirm that Iduna binding to PARP1 is dependent on PARsylation of PARP1, binding of automodified PARP1 with ^32P-NAD was monitored in a GST pull down experiment with Histone H3 as a positive control (FIGS. 84 and 85). […] Iduna and Iduna-C60A bind to a range of PAR polymers of varying length similar to H3, whereas Iduna-YRAA fails to bind to PAR, as determined by phosphorimager detection of radiolabeled PAR polymer bound to Iduna, Iduna-C60A and H3 after separation by Tris-borate-EDTA PAGE (FIG. 87).

[2] = tested on: MCF7 cells; experiment: MNNG cell death assay in stable MCF7 cell lines; type: cell-based, human; details: MNNG 500 μM 15 min, 24 hr
Experimental: Cell death assay. GFP, GFP-Iduna, GFP-Iduna C60A, GFP-Iduna YRAA, shRNA-Iduna and shRNA-Iduna/GFP-Iduna stably transfected cells were treated with 500 μM MNNG for 15 min, and replaced with fresh growth media. After 24 h, the cells were stained with […] Hoechst 33342 (Invitrogen) and […] propidium iodide (PI) (Invitrogen) and counted by automated computer-assisted program (Carl Zeiss). The percentage of cell death was determined as the ratio of live to dead cells compared with the percentage of cell death in control.

[3] = tested on: MCF7 cells; experiment: Determination of apurinic/apyrimidinic (AP) sites; type: cell-based, human; details: 1 h
Experimental: Determination of apurinic/apyrimidinic (AP) sites. The amount of AP sites in genomic DNA was monitored by a DNA damage quantification kit (BioVision). Briefly, cells were treated with either DMSO or 500 μM MNNG for 15 min, and then replaced with normal growth media. After 1 h, cells were scraped and harvested at 500×g for 5 min and washed once with PBS. Genomic DNA was isolated using a Biovision Genomic DNA Isolation Kit (BioVision) and then AP sites on the 0.5 μg of genomic DNA was labeled with biotin by the Aldehyde Reactive Probe (ARP) reagent (supplied with the DNA damage quantification kit) for 1 h at 37° C. To precipitate the biotin-tagged DNA, sample was mixed with TE buffer containing 2% glycogen and then sequentially incubated with ice cold 70% ethanol for 30 min at −20° C. […] To determine of the number of AP sites in DNA, samples were dissolved in TE buffer and then transferred into 96 well plate with DNA binding buffer (supplied with the DNA damage quantification kit). After 12 h, samples were washed five times with DNA washing buffer (supplied with the DNA damage quantification kit) and then biotin labeled AP sites were quantified using an avidin-biotin assay. Each sample and standards (supplied with a DNA damage quantification kit) were run in triplicate and the OD was measured at 650 nm using a 96-well plate reader (SpectraMax Plus384 Microplate Reader).

[4] = tested on: MCF7 cells; experiment: Cell cycle analysis after γ-irradiation; type: cell-based, human; details: γ-irradiation 2 Gy
Experimental: Cell cycle analysis. Studies were performed to evaluate the cell cycle response of each stable cell lines. Cells were plated onto 150 mm culture dishes and cultured for 24 h at 37° C. with fresh growth medium. Following replacement of growth medium, cells were irradiated at 2 Gy with a Gammacell irradiator. After 12 h, cells were washed once with PBS and incubated with PBS containing 0.2% EDTA for 5 min at 37° C., thereafter scraped with fresh growth medium and collected at 500×g at 4° C. Collected cells were washed once with ice cold PBS and then fixed with 70% ethanol. Cells were washed once with PBS containing 1% FBS and resuspended into propidium iodide (PI) staining buffer (PBS, pH 7.4, 50 μg/ml PI, 1% FBS, 100 μg/ml RNase) for 30 min at 37° C. Cells were monitored for DNA content by a flow cytometry (BD Biosciences) and then data were analyzed with FlowJo using Dean-Jett-Fox model for the quantification of each cell cycle phase.

[5] = tested on: MCF7 cells; experiment: Alkaline comet assay after γ-irradiation; type: cell-based, human; details: γ-irradiation 2 Gy, 15 min
Experimental: Comet assay. Single cell gel electrophoresis assay was performed by following the manufacturer's instructions. Briefly, established stable cell lines were irradiated (2 Gy) with a Gammacell irradiator and then further incubated for 15 min at 37° C. Cells were collected at 500×g at 4° C. and rinsed twice with ice cold PBS (Ca++ and Mg++ free). A total of 5×10^5 cells were counted and resuspended into PBS (Ca++ and Mg++ free) and then combined with LMAgarose (low melting agarose) at a ratio 1:10 (v/v). Each sample was spotted into CometSlide™ and lysed with buffer (supplied with CometAssay Kit, Trevigen) for 1 h at 4° C. After draining the excess lysis buffer, slides were immersed with alkaline unwinding solution (200 mM NaOH, pH>13, 1 mM EDTA) for 1 h at RT. To the single cell electrophoresis, each comet slide was placed in electrophoresis slide tray with 1 L of alkaline unwinding solution and applied to 21 Volts for 30 min for electrophoresis. After draining the excess electrophoresis buffer, slides were rinsed twice with dH2O and then fixed with 70% ethanol for 5 min. To facilitate single cell observation, slides were dried at 40° C. and stained with SYBR Green I (supplied with CometAssay Kit) for 5 min at 4° C. […] Fifty cells per slide were monitored and the DNA damage was calculated using comet tail length and head diameter parameters.

[6] = tested on: PAR polymer; experiment: PAR polymer overlay / dot blot (far western); type: binding; details: PAR polymer overlay assay
Excerpt: PAR binding is specified by a sequence of approximately 20 amino acids containing N-terminal basic amino acids and a C-terminal region containing alternating hydrophobic and basic amino acids (FIG. 24). Iduna contains a predicted PAR polymer binding sequence within amino acids 144-167 of the WWE domain (FIGS. 1 and 24). The PAR-binding domain was defined by comparing to the consensus sequence for PAR-binding and the known PAR binding domain of Histone 3 (FIG. 24). HEK293 cells were transfected with GFP, GFP-Iduna lacking the WWE domain (GFP-IdunaΔWWE), GFP-Iduna lacking the RF domain (GFP-IdunaARF), and full-length GFP-Iduna, followed by immunoprecipitation with a GFP antibody. […] Only GFP-Iduna-ARF and full-length GFP-Iduna can co-immunoprecipiate PAR binding proteins (FIG. 25). The critical amino acids in the PAR binding domain, 156Y and 157R, were mutated to 156A and 157A in full length Iduna (Iduna-YRAA). […] Similar results are obtained with a biotin-tagged PAR polymer followed by detection with an anti-biotin antibody (FIG. 26). […] Histone H3 is a known PAR binding protein and was used as a positive control for the PAR overlay assay. […] An assay based on electrophorectic mobility shift (EMSA) for PAR binding was developed to monitor PAR polymer binding to Iduna. […]

B1: PARG: PAR glycohydrolase, which degrades PAR (protein, UniProt Q86W56 1-976, looked up)
Poly(ADP-ribose) …: MNAGPGCEPCTKRPRWGAATTSPAASDARSFPSRQRRVLDPKDAHVQFRVPPSSPACVPGRAGQHRGSATSLVFKQKTITSWMDTKGIKTAESESLDSKENNNTRIESMMSSVQKDNFYQHNVEKLENVSQLSLDKSPTEKSTQYLNQHQTAAMCKWQNEGKHTEQLLESEPQTVTLVPEQFSNANIDRSPQNDDHSDTDSEENRDNQQFLTTVKLANAKQTTEDEQAREAKSHQKCSKSCDPGEDCASCQQDEIDVVPESPLSDVGSEDVGTGPKNDNKLTRQESCLGNSPPFEKESEPESPMDVDNSKNSCQDSEADEETSPGFDEQEDGSSSQTANKPSRFQARDADIEFRKRYSTKGGEVRLHFQFEGGESRTGMNDLNAKLPGNISSLNVECRNSKQHGKKDSKITDHFMRLPKAEDRRKEQWETKHQRTERKIPKYVPPHLSPDKKWLGTPIEEMRRMPRCGIRLPLLRPSANHTVTIRVDLLRAGEVPKPFPTHYKDLWDNKHVKMPCSEQNLYPVEDENGERTAGSRWELIQTALLNKFTRPQNLKDAILKYNVAYSKKWDFTALIDFWDKVLEEAEAQHLYQSILPDMVKIALCLPNICTQPIPLLKQKMNHSITMSQEQIASLLANAFFCTFPRRNAKMKSEYSSYPDINFNRLFEGRSSRKPEKLKTLFCYFRRVTEKKPTGLVTFTRQSLEDFPEWERCEKPLTRLHVTYEGTIEENGQGMLQVDFANRFVGGGVTSAGLVQEEIRFLINPELIISRLFTEVLDHNECLIITGTEQYSEYTGYAETYRWSRSHEDGSERDDWQRRCTEIVAIDALHFRRYLDQFVPEKMRRELNKAYCGFLRPGVSSENLSAVATGNWGCGAFGGDARLKALIQILAAAAAERDVVYFTFGDSELMRDIYSMHIFLTERKLTVGDVYKLLLRYYNEECRNCSTPGPDIKLYPFIYHAVESCAETADHSGQRTGT
removal of PAR from PARsylated PARP1 [1]: dose dependently removes PAR from PARsylated PARP1

B2: Iduna C60A: Iduna RING finger point mutant lacking E3 ligase activity (protein, UniProt Q9NTX7 1-359, looked up, variant C60A)
E3 ubiquitin-protein ligase …: MMAGCGEIDHSINMLPTNRKANESCSNTAPSLTVPECAICLQTCVHPVSLPCKHVFCYLAVKGASWLGKRCALCRQEIPEDFLDKPTLLSPEELKAASRGNGEYAWYYEGRNGWWQYDERTSRELEDAFSKGKKNTEMLIAGFLYVADLENMVQYRRNEHGRRRKIKRDIIDIPKKGVAGLRLDCDANTVNLARESSADGADSVSAQSGASVQPLVSSVRPLTSVDGQLTSPATPSPDASTSLEDSFAHLQLSGDNTAERSHRGEGEEDHESPSSGRVPAPDTSIEETESDASSDSEDVSAVVAQHSLTQQRLLVSNANQTVPDRSDRSGTDRSVAGGGTVSVSVRSRRPDGQCTVTEV
modifications: GFP tag
MNNG-induced cell death [2]: not protective | increase in AP sites after MNNG [3]: fails to reduce the number of AP sites | cell cycle arrest and cell survival [4]: not protective | comet head diameter and tail length [5]: does not prevent the reduction in head diameter and increase in tail length

B3: GST-Iduna: full length recombinant GST-Iduna fusion protein (protein)
chain: MEMAGCGEIDHSINMLPTNKKANESCSNTAPSLTVPECAICLQTCVHPVSLPCKHVFCYLCVKGASWLGKRCALCRQEIPEDFLDKPTLLSPEELKAASRGNGEYAWYYEGRNGWWQYDERTSRELEDAFSKGKKNTEMLIAGFLYVADLENMVQYRRNEHGRRRKIKRDIIDIPKKGVAGLRLDCDTNTVNLARESSADGADSGSAQTGASVQLAVPSSTRPLTSVDGQLTSPVTPSPDAGISLEDSFAHLQLSGDSIAERSHRGEGEEDHESPSSGRVPDTSVEETESDASSDSEDAPVVVAQHSLTQQRPLVPNGNQTVADQSDRSGTDRSVAGGGTMSVNVRSRRPDGQCTVIEV
modifications: left off: a dimerising Fc or GST
notes: full length recombinant GST-Iduna fusion protein
PAR polymer binding [6]: binds to PAR polymer
